Test results published in patent US11015206B2, “Compositions and methods comprising sequences having hydroxyphenylpyruvate dioxygenase (HPPD) activity” (PIONEER HI-BRED INTERNATIONAL, INC., priority 2014, dated 2021).
Positions count from the first letter of the chain named. One block for each molecule: values may come before it.

Experiments:
Assay type in all cases: biochemical, Z. mays
[1] = system: 4-hydroxyphenylpyruvate dioxygenase (HPPD); test: Estimate of kcat from initial rate at saturating hydroxyphenylpyruvate without inhibitor (ON rate ratio assay)
Excerpt: (§1) Higher KD (reduced affinity or increased insensitivity) can be attained with a numerically smaller ON rate, a larger OFF rate or both. To detect and quantify changes in kON and kOFF, observations of the time course of an HPPD reaction as inhibitor binds to and inactivates the enzyme (kON), or is released from a pre-formed enzyme-inhibitor complex (kOFF) were used, as shown in FIGS. 13A and 13B. In practice, a quantitative indicator of kON was obtained by monitoring the time courses of HPPD reactions containing 60 or 120 nM HPPD and 100 μM HPP in the presence and absence of 4 μM inhibitor (e.g., mesotrione or tembotrione). The ratio of the reaction rate with inhibitor to that without inhibitor during the 70 to 90 second interval of the reaction was termed the “ON rate ratio”. The smaller the actual kON, the more slowly the HPPD reaction decelerates and the higher the value is for the ON rate ratio. FIGS. 13A and 13B illustrate the contrasting reaction velocity in the 70-90 sec interval for maize wild-type HPPD (FIG. 13A) versus an improved variant (SEQ ID NO:78) (FIG. 13B).
Thirty nine variants were desensitized to tembotrione compared with the backbone enzyme, Round 7, variant 9070 (SEQ ID NO:2) and all were desensitized compared with maize wild type HPPD (SEQ ID NO:1). Because the assay for ON rate ratio includes an initial rate measurement at saturating hydroxyphenylpyruvate without inhibitor and with known enzyme concentration, an estimate of kcat was available. Taking into account kcat and insensitivity parameters, 30 variants were selected for measurement of substrate saturation kinetic parameters and re-evaluation of insensitivity to tembotrione. The kinetic and insensitivity parameters were determined as described in Example 1, and were multiplied to generate the “trait fitness” parameter. The complete list of variants, i.e., of selected single substitutions in SEQ ID NO:2, analyzed with multiple inhibitors and the results obtained are shown in Table 6. The same set of 30 variants were evaluated for insensitivity to mesotrione, sulcotrione, isoxaflutole (its active diketonitrile form, abbreviated DKN in Table 6) and topramezone.

[2] = system: 4-hydroxyphenylpyruvate dioxygenase (HPPD); test: OFF rate ratio: release of inhibitor from pre-formed enzyme-inhibitor complex; details: Table 7; tembotrione; combinatorial variants
Method: A quantitative indicator of kOFF can be obtained by observing the time course of an HPPD reaction as inhibitor is released from a pre-formed enzyme-inhibitor complex. HPPD and inhibitor were incubated together at concentrations of 7.2 and 8 μM, respectively. Incubations with the same concentrations of enzyme but no inhibitor were done in parallel. After 1 hr at room temperature, 5 to 10 μl of the enzyme-inhibitor complex was dispensed into the wells of the assay plate. Reactions were started with the addition of 290 to 295 μl of 25 mM Hepes, pH 7, 2 mM ascorbate, 10 μM FeSO4, 100 μM HPP and 50 nM HGD. The reactions were monitored at 320 nm for 12 min. Reaction velocity accelerates as inhibitor is released from the enzyme until a steady state is reached, during which the reaction velocity is constant. The ratio of the steady state rate in mixtures containing herbicidal inhibitor to the initial velocity of mixtures lacking inhibitor is termed the “OFF rate ratio”.
Another parameter to record is the time span required for the reactions with inhibitor to reach the steady state. FIGS. 13C and 13D illustrate the contrasting time span in which maize wild-type HPPD (FIG. 13C) and an improved variant (SEQ ID NO:78) (FIG. 13D) dissociated from mesotrione, as indicated by the accelerating reaction rates. The plateau of absorbance is due to exhaustion of the substrate. With the improved variant, not only was the steady state attained in a shorter time span (80 sec for the variant versus 280 sec for wild type), the velocity attained was twice as high as with wild type, though the enzymes were present at the same concentration (240 nM). This is because a larger fraction of the variant enzyme is free of inhibitor compared to the wild-type enzyme, and the kcat for both is nearly the same, about 220 min^−1.

[3] = system: 4-hydroxyphenylpyruvate dioxygenase (HPPD); test: Insensitivity parameter (ON × OFF) and trait fitness (ON × OFF × kcat/KM or × kcat); parameters: key to ON × OFF / Insensitivity, mesotrione, ON × OFF / Insensitivity, tembotrione, ON × OFF / Insensitivity, topramezone, ON × OFF / Insensitivity, sulcotrione, ON × OFF / Insensitivity, isoxaflutole (DKN), ON × OFF: insensitivity = ON rate ratio × OFF rate ratio (surrogate for KD)
Excerpt: Because substrate and inhibitors bind in the same site, the high concentration of substrate present may competitively trap the inhibitor and prevent it from binding again. To be sure that improvement in ON rates is being taken into account, the ON and OFF rate ratios were multiplied, creating an “insensitivity parameter” that is a surrogate for KD. KD is expressed as kOFF/kON, but because the ON rate ratio is an inverse parameter (the higher the value of ON rate ratio, the lower the value of the represented phenomenon, kON), it is appropriate to multiply ON and OFF rate ratios rather then divide OFF rate ratio by ON rate ratio. Another parameter, which quantifies the combined catalytic and insensitivity properties of the enzyme is kcat/KM×ON rate ratio×OFF rate ratio, and is termed “trait fitness”. This parameter is intended to have a meaning similar to the commonly used expression kcat/KM×Ki.

[4] = system: 4-hydroxyphenylpyruvate dioxygenase (HPPD); test: ON rate ratio: HPPD reaction rate with vs without inhibitor in the 70 to 90 second interval; details: Table 7; tembotrione; combinatorial variants
Excerpt: as §1

[5] = Table 7, combinatorial variants
[6] = Table 7, tembotrione, combinatorial variants

OFF rate ratio [2]: 0.304
ON × OFF ([3]; Megatable 3, shuffled variants): 0.218
ON × OFF [3, 6]: 0.218
ON rate ratio [4]: 0.718
B1: P056028-F-01 (protein)
chain: MGPTPTATAAGAAVAAASAAEQAAFRLVGHRNFVRFNPRSDRFQTLAFHHVELWCADAASAAGRFSFALGVPLAARSDLSTGNSAHASLLLRSGSLSLLFTAPYAHGADAATAALPSFSAAAARRFAADHGLAVRAVALRVADAEDAFRASVAAGARPAFGPVDLGRGFRLAEVELYGDVVLRYVSYPDGGAGEPFLPGFEGVASPGAADYGLSRFDHIVGNVPELAPAAAYMAGFTGFHEFAEFTTEDVGTTESGLNSMALANNSENVLLPLNEPVHGTKRRSQIQTFLDHHGGPGVQHIALASDDVLRTLREMRARSAMGGFEFLPPPLSDYYDGVRRCAGDVLTEAQINECQELGVMVDRDDEGVLLQIFTKPVGDRPTFFLEIIQRIGCMEKDEKGQEYQKGGCGGFGKGNFGQLFRSIEDYEKSLEAKRAAAAATAQGS
modifications: Zea mays variant form created by artificial means.
kcat ([1]; Megatable 3, shuffled variants): 0.522 s⁻¹
kcat [1, 5]: 0.522 s⁻¹
ON × OFF × kcat ([3]; Megatable 3, shuffled variants): 6.82
ON × OFF × kcat [3, 6]: 6.82

OFF rate ratio [2]: 0.310
ON × OFF ([3]; Megatable 3, shuffled variants): 0.230
ON × OFF [3, 6]: 0.230
ON rate ratio [4]: 0.742
B2: P056028-C-01 (protein)
chain: B1 chain with G191A, P206S, Y211L, R421K, R434Q
modifications: Zea mays variant form created by artificial means.
kcat ([1]; Megatable 3, shuffled variants): 0.432 s⁻¹
kcat [1, 5]: 0.432 s⁻¹
ON × OFF × kcat ([3]; Megatable 3, shuffled variants): 5.95
ON × OFF × kcat [3, 6]: 5.95

OFF rate ratio [2]: 0.326
ON × OFF ([3]; Megatable 3, shuffled variants): 0.248
ON × OFF [3, 6]: 0.248
ON rate ratio [4]: 0.761
B3: P056028-E-02 (protein)
chain: B1 chain with G191A, P206S, R421K, R434Q
modifications: Zea mays variant form created by artificial means.
kcat ([1]; Megatable 3, shuffled variants): 0.393 s⁻¹
kcat [1, 5]: 0.393 s⁻¹
ON × OFF × kcat ([3]; Megatable 3, shuffled variants): 5.86
ON × OFF × kcat [3, 6]: 5.86

OFF rate ratio [2]: 0.133
ON × OFF ([3]; Megatable 3, shuffled variants): 0.096
ON × OFF [3, 6]: 0.096
ON rate ratio [4]: 0.724
B4: P056028-A-04 (protein)
chain: B1 chain with G191A, E356R, L385I, R421K, R434Q
modifications: Zea mays variant form created by artificial means.
kcat ([1]; Megatable 3, shuffled variants): 0.185 s⁻¹
kcat [1, 5]: 0.185 s⁻¹
ON × OFF × kcat ([3]; Megatable 3, shuffled variants): 1.06
ON × OFF × kcat [3, 6]: 1.06

OFF rate ratio [2]: 0.382
ON × OFF ([3]; Megatable 3, shuffled variants): 0.273
ON × OFF [3, 6]: 0.273
ON rate ratio [4]: 0.714
B5: P056028-C-07 (protein)
chain: B1 chain with R340K, E356R, R421K
modifications: Zea mays variant form created by artificial means.
kcat ([1]; Megatable 3, shuffled variants): 0.353 s⁻¹
kcat [1, 5]: 0.353 s⁻¹
ON × OFF × kcat ([3]; Megatable 3, shuffled variants): 5.80
ON × OFF × kcat [3, 6]: 5.80

OFF rate ratio [2]: 0.280
ON × OFF ([3]; Megatable 3, shuffled variants): 0.198
ON × OFF [3, 6]: 0.198
ON rate ratio [4]: 0.707
B6: P056028-A-05 (protein)
chain: B1 chain with G191A, P206Q, R340K, R421K, R434Q
modifications: Zea mays variant form created by artificial means.
kcat ([1]; Megatable 3, shuffled variants): 0.295 s⁻¹
kcat [1, 5]: 0.295 s⁻¹
ON × OFF × kcat ([3]; Megatable 3, shuffled variants): 3.50
ON × OFF × kcat [3, 6]: 3.50

OFF rate ratio [2]: 0.361
ON × OFF ([3]; Megatable 3, shuffled variants): 0.246
ON × OFF [3, 6]: 0.246
ON rate ratio [4]: 0.681
B7: P056028-D-08 (protein)
chain: B1 chain with R340K, R421K
modifications: Zea mays variant form created by artificial means.
kcat ([1]; Megatable 3, shuffled variants): 0.458 s⁻¹
kcat [1, 5]: 0.458 s⁻¹
ON × OFF × kcat ([3]; Megatable 3, shuffled variants): 6.77
ON × OFF × kcat [3, 6]: 6.77

OFF rate ratio [2]: 0.366
ON × OFF ([3]; Megatable 3, shuffled variants): 0.258
ON × OFF [3, 6]: 0.258
ON rate ratio [4]: 0.706
B8: P056028-A-11 (protein)
chain: B1 chain with G191A, G417S, R421K, R434Q
modifications: Zea mays variant form created by artificial means.
kcat ([1]; Megatable 3, shuffled variants): 0.143 s⁻¹
kcat [1, 5]: 0.143 s⁻¹
ON × OFF × kcat ([3]; Megatable 3, shuffled variants): 2.21
ON × OFF × kcat [3, 6]: 2.21

OFF rate ratio [2]: 0.339
ON × OFF ([3]; Megatable 3, shuffled variants): 0.235
ON × OFF [3, 6]: 0.235
ON rate ratio [4]: 0.692
B9: P056028-A-09 (protein)
chain: B1 chain with P158K, G191A, Y211L, S214N, R421K, R434Q
modifications: Zea mays variant form created by artificial means.
kcat ([1]; Megatable 3, shuffled variants): 0.232 s⁻¹
kcat [1, 5]: 0.232 s⁻¹
ON × OFF × kcat ([3]; Megatable 3, shuffled variants): 3.26
ON × OFF × kcat [3, 6]: 3.26

OFF rate ratio [2]: 0.367
ON × OFF ([3]; Megatable 3, shuffled variants): 0.260
ON × OFF [3, 6]: 0.260
ON rate ratio [4]: 0.707
B10: P056028-A-10 (protein)
chain: B1 chain with G191A, P206Q, Y211L, E356K, R421K, R434Q
modifications: Zea mays variant form created by artificial means.
kcat ([1]; Megatable 3, shuffled variants): 0.28 s⁻¹
kcat [1, 5]: 0.28 s⁻¹
ON × OFF × kcat ([3]; Megatable 3, shuffled variants): 4.35
ON × OFF × kcat [3, 6]: 4.35

OFF rate ratio [2]: 0.375
ON × OFF ([3]; Megatable 3, shuffled variants): 0.268
ON × OFF [3, 6]: 0.268
ON rate ratio [4]: 0.715
B11: P056028-C-05 (protein)
chain: B1 chain with G191A, R340K, E356R, R421K, R434Q
modifications: Zea mays variant form created by artificial means.
kcat ([1]; Megatable 3, shuffled variants): 0.362 s⁻¹
kcat [1, 5]: 0.362 s⁻¹
ON × OFF × kcat ([3]; Megatable 3, shuffled variants): 5.80
ON × OFF × kcat [3, 6]: 5.80

OFF rate ratio [2]: 0.329
ON × OFF ([3]; Megatable 3, shuffled variants): 0.239
ON × OFF [3, 6]: 0.239
ON rate ratio [4]: 0.726
B12: P056028-A-07 (protein)
chain: B1 chain with P206Q, Y211L, R421K, R434Q
modifications: Zea mays variant form created by artificial means.
kcat ([1]; Megatable 3, shuffled variants): 0.325 s⁻¹
kcat [1, 5]: 0.325 s⁻¹
ON × OFF × kcat ([3]; Megatable 3, shuffled variants): 4.65
ON × OFF × kcat [3, 6]: 4.65

OFF rate ratio [2]: 0.324
ON × OFF ([3]; Megatable 3, shuffled variants): 0.217
ON × OFF [3, 6]: 0.217
ON rate ratio [4]: 0.669
B13: P056028-A-08 (protein)
chain: B1 chain with L182M, G191A, P206Q, H278R, R340K, R421K, R434Q, A438T
modifications: Zea mays variant form created by artificial means.
kcat ([1]; Megatable 3, shuffled variants): 0.437 s⁻¹
kcat [1, 5]: 0.437 s⁻¹
ON × OFF × kcat ([3]; Megatable 3, shuffled variants): 5.68
ON × OFF × kcat [3, 6]: 5.68
